Consider 4 substances from PMC8047445.

By koff is commonly meant a measure of how fast the partners let go of each other. Broadly, the kon is the second-order rate constant of association. By Kd is commonly meant the equilibrium constant for the complex coming apart.

Test [1] has as its target cHSP27 (isolated alpha-crystallin domain of HSP27) (human) (UniProt P04792). Briefly: NMR titration; 2D 1H-15N HSQC titration of 15N-cHSP27 (oxidised, disulfide-linked dimer) with unlabelled peptide, 25 °C, 30 mM sodium phosphate, 2 mM EDTA, pH 7; two-state 2D lineshape fit with TITAN on fast- and slow-exchange residues; apparent.
The target is the same in test [2]. Kind of test: 15N CPMG relaxation dispersion NMR; 2H,15N-cHSP27 1.5 mM with 80 µM WT or 200 µM P182L peptide, 25 °C, 11.7 and 14.1 T; naive two-state fit (delta R2 = 0), kon and koff from pB and kex; apparent.
Test [3] shares this target. Kind of test: 15N CPMG relaxation dispersion NMR; same data as a2; pB fixed at the value expected from the titration Kd (4.9% WT, 7.2% P182L) and delta R2 allowed to be non-zero.
Test [4] has the same target. Kind of test: NMR titration; earlier TITAN lineshape fit of the HSQC titration, as told in the first response to reviewers.
The target is the same in test [5]. Briefly: 15N CPMG relaxation dispersion NMR; earlier two-state fit of the CPMG RD data, as told in the first response to reviewers; koff = kex(1-pB), kon = kex pB/[L]free.
The target in test [6] is cHSP27, isolated alpha-crystallin domain (ACD) of HSP27, oxidized disulfide-linked dimer (human) (UniProt P04792). Briefly: NMR titration; same HSQC titration, 25 C; 2D lineshape analysis with TITAN, fast- and slow-exchange residues fitted globally.
Test [7] shares this target. Briefly: NMR titration; 2D 1H-15N HSQC of 15N-cHSP27 (oxidized dimer) with unlabeled peptide, 25 C, 30 mM sodium phosphate, 2 mM EDTA, pH 7; global fit of CSPs of fast-exchange resonances to a two-state model (equation 2).
Test [8] shares this target. Kind of test: NMR 15N CPMG relaxation dispersion; 2H,15N-cHSP27 (oxidized dimer) 1.5 mM with 80 uM WT peptide or 200 uM P182L peptide, 25 C, 500 and 600 MHz; naive two-state fit.

On to “P182L peptide (C-terminal IxI/V peptide of HSP27 with the CMT mutation P182L)”, for which the koff in test [1] was 771 s⁻¹; in test [3], 547 s⁻¹; in test [4], 774 s⁻¹; in test [5] it was 840 s⁻¹. Further, the kon in test [1] was found to be 600000 M⁻¹ s⁻¹; in test [2], 73000 M⁻¹ s⁻¹; in test [3], 500000 M⁻¹ s⁻¹; in test [5], 83000 M⁻¹ s⁻¹.
Turning to “P182L peptide comprising the mutated IxI/V (ILV) motif of the HSP27 C-terminal region”, the Kd in test [6] was found to be 1280 µM. The Kd in test [7] turned out to be 1030 µM. Besides, in test [8], the Kd came to 8.37 mM; the koff was 610 s⁻¹; the pB (percent of cHSP27 bound, by CPMG RD) was 2%.
Consider “WT peptide (C-terminal IxI/V peptide of HSP27)”, for which the off-rate (koff) turned out to be 207 s⁻¹ in test [1], 346 s⁻¹ in test [3] and 759 s⁻¹ in test [5]. The kon was 1.6e+06 M⁻¹ s⁻¹ in test [1], 290000 M⁻¹ s⁻¹ in test [2], 2.8e+06 M⁻¹ s⁻¹ in test [3] and 300000 M⁻¹ s⁻¹ in test [5].
“WT peptide comprising the IxI/V (IPV) motif of the HSP27 C-terminal region”: the Kd in test [6] was determined as 132 µM; in test [7] it was 124 µM; in test [8] it was 1.76 mM. Besides, the koff in test [8] worked out at 515 s⁻¹. In addition, in test [8], the pB (percent of cHSP27 bound, by CPMG RD) worked out at 2.4%.
